The values below come from EP4755916A1.

Assay [1] deals with human BTN3A1 recombinant protein with his tag (h-BTN3A1-his) (human) (UniProt O00481). As to the kind of experiment: ELISA, plate coated with h-BTN3A1-his 1 ug/mL, B cell supernatant. (In general: ELISA stands for enzyme-linked immunosorbent assay.)
Assay [2] addresses human BTN3A1 expressed on HEK293 cells (human) (UniProt O00481). Nature of the assay: flow cytometry, HEK293 cells transiently expressing human BTN3A1, B cell supernatant. In general terms: In flow cytometry, cells or beads pass a laser one at a time.
Assay [3] has as its target BTN3A protein on SKOV-3 cells. Nature of the assay: cell-based or functional assay.

human BTN3A1 expressed on HEK293 cells (human), sequence (O00481 30-513): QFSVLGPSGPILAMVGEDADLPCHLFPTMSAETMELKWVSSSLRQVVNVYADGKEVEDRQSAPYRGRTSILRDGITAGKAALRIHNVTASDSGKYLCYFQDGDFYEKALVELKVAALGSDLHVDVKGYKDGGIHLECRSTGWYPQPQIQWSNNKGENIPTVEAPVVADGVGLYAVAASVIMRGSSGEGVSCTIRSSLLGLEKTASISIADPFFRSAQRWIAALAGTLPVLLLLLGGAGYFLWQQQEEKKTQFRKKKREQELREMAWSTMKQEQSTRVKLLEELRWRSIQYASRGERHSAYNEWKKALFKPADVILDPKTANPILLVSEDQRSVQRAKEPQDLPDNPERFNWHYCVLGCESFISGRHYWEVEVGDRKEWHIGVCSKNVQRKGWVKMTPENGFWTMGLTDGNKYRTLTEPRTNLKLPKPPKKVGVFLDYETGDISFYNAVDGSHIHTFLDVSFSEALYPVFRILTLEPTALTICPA
human BTN3A1 recombinant protein with his tag (h-BTN3A1-his) (human), sequence (O00481 30-254 limits assumed): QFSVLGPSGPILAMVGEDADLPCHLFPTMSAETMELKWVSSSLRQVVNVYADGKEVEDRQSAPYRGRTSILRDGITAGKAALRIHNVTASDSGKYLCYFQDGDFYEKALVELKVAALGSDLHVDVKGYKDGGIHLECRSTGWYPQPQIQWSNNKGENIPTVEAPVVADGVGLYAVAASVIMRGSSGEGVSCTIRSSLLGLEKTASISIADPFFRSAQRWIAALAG

B1: anti-BTN3A1 rabbit-derived monoclonal antibody r20A3 (antibody, V domains shown)
VH: QSVEESGGRLVTPGTPLTLTCTASGFTINNYYMNWVRQAPGKGLEWIGIIYGSDNTYYASWAKGRFTISKTSTTVDLIMTSPTTEDTATYFCVRNLDYSSAYFHIWGPGTLVTVSS
VL: QVLTQTPSPVSAAVGGTVSISCQASQSVYNNNRLAWYQQKPGQPPNLLIYEASKLASGVPSRFKGSGSGTQFTLIISEVQCEDAATYYCQGYYSGFIYPFGGGTEVVVK
Consider B1, for which the ELISA (OD 450) in assay [1] amounted to 2.1 OD450. Moreover, in assay [2], the MFI was 190000 MFI and the Percentage (%) stood at 98.3%.

B2: 20A3-H2L2 (antibody, human IgG1, kappa)
heavy: EVQLVESGGGLVQPGGSLRLSCAASGFTINNYYMNWVRQAPGKGLEWVSIIYGSDNTYYASWAKGRFTISKDNSKNTVYLQMNSLRAEDTAVYYCVRNLDYSSAYFHIWGQGTLVTVSSASTKGPSVFPLAPSSKSTSGGTAALGCLVKDYFPEPVTVSWNSGALTSGVHTFPAVLQSSGLYSLSSVVTVPSSSLGTQTYICNVNHKPSNTKVDKRVEPKSCDKTHTCPPCPAPEFEGGPSVFLFPPKPKDTLMISRTPEVTCVVVDVSHEDPEVKFNWYVDGVEVHNAKTKPREEQYNSTYRVVSVLTVLHQDWLNGKEYKCKVSNKALPASIEKTISKAKGQPREPQVYTLPPSREEMTKNQVSLTCLVKGFYPSDIAVEWESNGQPENNYKTTPPVLDSDGSFFLYSKLTVDKSRWQQGNVFSCSVMHEALHNHYTQKSLSLSPGK
light: DIQLTQSPSSLSASVGDRVTITCQASQSVYNNNRLAWYQQKPGKPPKLLIYEASKLASGVPSRFSGSGSGTDFTLTISSLQPEDVATYYCQGYYSGFIYPFGGGTKVEIKRTVAAPSVFIFPPSDEQLKSGTASVVCLLNNFYPREAKVQWKVDNALQSGNSQESVTEQDSKDSTYSLSSTLTLSKADYEKHKVYACEVTHQGLSSPVTKSFNRGEC
For the molecule B2, in assay [3], the EC50 of IFNγ secretion by Vγ9Vδ2 T cells co-cultured with SKOV-3 cells amounted to 0.284 nM and the Maximum IFNγ (pg/mL), Vγ9Vδ2 T cells co-cultured with SKOV-3 cells is 2470 pg/mL.

B3: anti-BTN3A1 rabbit-derived monoclonal antibody r17G4 (antibody, V domains shown)
VH: QSLEESGGRLVTPGTPLTLTCTASGFSLNDYYITWVRQAPGKGLEWIGVIYGSSNTVYASWAKGRFTISKTSTMVDLRITSPTTEDTATYFCARGYLASSADIWGPGTLVTVSL
VL: QVLTQTPSPVSAAVGGTVTINCQSSQSVYNNNRLAWYQQKPGQPPKLLIYDASTLASGVPSRFKGSGSGTDFTLTISDLECADAATYYCQTYYSGYIWAFGGGTEVVVK
In the case of B3, the ELISA (OD 450) in assay [1] is 1.84 OD450. In assay [2], this molecule came in with an MFI of 444000 MFI and a Percentage (%) of 99%.
